{
  "source": "patent US20260153518A1",
  "about": "“DIAGNOSIS OF IMMUNE-MEDIATED INFLAMMATORY DISEASES USING MMP12 AS INDICATOR, AND MEDICINE FOR TREATING IMMUNE-MEDIATED INFLAMMATORY DISEASES VIA MMP12 INHIBITION” (KEIO UNIVERSITY, priority 2022, published 2026)",
  "key": {"[1]": {"target": "h MMP12 (Homo sapiens, UniProt P39900)", "sequence (P39900 106-470)": "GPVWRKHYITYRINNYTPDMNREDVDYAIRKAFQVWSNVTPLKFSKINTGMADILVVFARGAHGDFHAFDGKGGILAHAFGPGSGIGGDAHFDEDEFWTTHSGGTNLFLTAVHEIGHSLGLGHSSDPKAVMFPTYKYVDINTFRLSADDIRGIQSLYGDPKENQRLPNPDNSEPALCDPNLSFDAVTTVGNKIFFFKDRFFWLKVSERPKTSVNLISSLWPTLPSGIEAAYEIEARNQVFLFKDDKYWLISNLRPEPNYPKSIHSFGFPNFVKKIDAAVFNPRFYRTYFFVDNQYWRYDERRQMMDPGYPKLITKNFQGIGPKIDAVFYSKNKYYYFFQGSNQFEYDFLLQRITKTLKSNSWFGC", "assay": "Evaluation of cleavage of candidate peptides by MMP12 (UPLC)", "format": "biochemical", "details": "for Number of cleavage peaks, Test: UPLC after incubation with h MMP12, 37° C.; for Number of cleavage peaks, Test / Cleavage rate (%) of each candidate peptide by MMP12: 16 hours; for Cleavage rate (%) of each candidate peptide by MMP12: activated h MMP12 2.0 ng/μL mixed 1:1 with 40 μM peptide, 37° C., UPLC peak area before/after, 440 nm; for cleavage rate by MMP12 (in words: low / medium / high) / cleavage site by MMP12: summary of Table 3", "description": "The evaluation of cleavage of candidate peptides by MMP12 was performed as follows.\nOn the first day, h MMP12 was diluted to 50 μg/mL with an assay buffer. APMA was added to the h MMP12 solution to adjust the final concentration of APMA to 1 mM, and the solution was incubated at 37° C. for 24 hours to activate h MMP12.\nOn the second day, activated h MMP12 was diluted to 2 ng/μL (=40 nM) with an assay buffer The substrate (peptide) was diluted to 40 μM with an assay buffer. 50 μL of h MMP12 (2.0 ng/μL) and 50 μL of the substrate (peptide) were mixed and incubated at 37° C. for 16 hours. A blank was prepared by mixing equal volumes of an assay buffer and the substrate (peptide).\nOn the third day, 100 μL of acetonitrile was added to the mixture from the second day. After centrifugation for 10 minutes, the supernatant was collected, and 10 μL of the supernatant was analyzed using ultra high performance liquid chromatography (UPLC).\nUPLC was performed under the conditions of measurement wavelength: 440 nm, flow rate: 0.4 mL/min, A: H2O with 0.1% TFA, B: CH3CN with 0.1% TFA, and elution conditions 10% B→70% B in 9.5 min, and as a result, it was confirmed that the two positive controls were cleaved by MMP12 (data is not shown).\nFor the candidate peptide Nos, 2, 4 to 7, 11, 15 to 17, 19, 20, and 22, the evaluation of cleavage by MMP12 was performed in the same manner as for the positive controls. Cleavage by MMP12 was confirmed for all the peptides tested. For Nos. 2 and 4 to 7, the cleavage sites were L-Q and L-R/K, but the cleavage rates were different. […] For Nos. 11, 15, 17, 20, and 22, the cleavage site was E-L, but the cleavage rates were different. The cleavage rate of No. 11 was high and the cleavage rate of No. 15 was low even though these candidate peptides have E-L-l. The cleavage rates of Nos. 17, 20, and 22, which have E-L-R, were high."}, "[2]": {"tested_on": "SCG/ThpNkc mice (ANCA-associated vasculitis model mice)", "assay": "Therapeutic effects of MMP12 inhibitors on ANCA-associated vasculitis model mice", "format": "in vivo", "description": "SCG/ThpNkc mice (see Proc Natl Acad Sci USA. 1993 Apr. 15; 90(8): 3413-7.) are ANCA-associated vasculitis model mice created by crossing and interbreeding two strains, MRL/Ipr and BXSB, and can be supplied from Laboratory Animal Resource Bank at the National Institute of Biomedical Innovation, Health and Nutrition (resource number: nbio133).\nIn this experiment, MMP408 (CAS No. 1258003-93-8), which is an MMP12 selective inhibitor, was administered to male SCG/ThpNkc mice, and the therapeutic effects of MMP408 were examined.\nThe SCG/ThpNkc mice were reared in cages with normal solid food and water. At weeks of age, it was confirmed that the mice had positive occult blood in their urine. From 11 weeks of age, MMP408 was administered via the intraperitoneal route at a dose of 100 μg twice a week. Urine analysis was performed at 15 and 20 weeks of age, and the mice were sacrificed at 20 weeks of age. The number of mice in an MMP408 non-administration group and the number of mice in an MMP408 administration group were n=25 and n=4, respectively."}},
  "note": "Where no end group is shown, it is not given here.",
  "data": [
    {"compound": "APIANELRSQSLQT (not fully specified; also: 5-carboxyfluorescein label) [No. 17]", "values": [
      {"measurement": "Number of cleavage peaks, Test", "setting": "[1]", "result": 1},
      {"measurement": "Cleavage rate (%) of each candidate peptide by MMP12", "setting": "[1]", "result": 98.6, "unit": "%"},
      {"measurement": "cleavage rate by MMP12 (in words: low / medium / high)", "setting": "[1]", "result": "high"},
      {"measurement": "cleavage site by MMP12", "setting": "[1]", "result": "E-L"}
    ]},
    {"compound": "SFSSSRNLQERL (not fully specified; also: 5-carboxyfluorescein label) [No. 06]", "values": [
      {"measurement": "Number of cleavage peaks, Test", "setting": "[1]", "result": 1},
      {"measurement": "Cleavage rate (%) of each candidate peptide by MMP12", "setting": "[1]", "result": 90.3, "unit": "%"},
      {"measurement": "cleavage rate by MMP12 (in words: low / medium / high)", "setting": "[1]", "result": "medium to high"}
    ]},
    {"compound": "PESSLRKRKRSR (not fully specified; also: 5-carboxyfluorescein label) [No. 16]", "values": [
      {"measurement": "Number of cleavage peaks, Test", "setting": "[1]", "result": 1},
      {"measurement": "Cleavage rate (%) of each candidate peptide by MMP12", "setting": "[1]", "result": 61.7, "unit": "%"}
    ]},
    {"compound": "SLSFSTNLQKRL (not fully specified; also: 5-carboxyfluorescein label) [No. 04]", "values": [
      {"measurement": "Number of cleavage peaks, Test", "setting": "[1]", "result": 1},
      {"measurement": "Cleavage rate (%) of each candidate peptide by MMP12", "setting": "[1]", "result": 53.5, "unit": "%"},
      {"measurement": "cleavage rate by MMP12 (in words: low / medium / high)", "setting": "[1]", "result": "medium"}
    ]},
    {"compound": "PAAAVLRELRSVS (not fully specified; also: 5-carboxyfluorescein label) [No. 22]", "values": [
      {"measurement": "Number of cleavage peaks, Test", "setting": "[1]", "result": 3},
      {"measurement": "Cleavage rate (%) of each candidate peptide by MMP12", "setting": "[1]", "result": 100.0, "unit": "%"},
      {"measurement": "cleavage rate by MMP12 (in words: low / medium / high)", "setting": "[1]", "result": "high"},
      {"measurement": "cleavage site by MMP12", "setting": "[1]", "result": "E-L"}
    ]},
    {"compound": "COC(=O)Nc1ccc2oc3cc(S(=O)(=O)N[C@@H](C(=O)O)C(C)C)ccc3c2c1", "note": "[MMP408]", "values": [
      {"measurement": "urine occult blood", "setting": "[2]; MMP408 administration group, week 20, FIG. 12 (n=2)", "result": "improved"},
      {"measurement": "mice still alive at 20 weeks (survival curve)", "setting": "[2]; male SCG/ThpNkc mice, MMP408 100 μg intraperitoneal twice a week from 11 weeks of age, n=4, log-rank test p=0.037 vs non-administration group (92% died by 20 weeks)", "result": "2 out of 4"}
    ]},
    {"compound": "APRIKKIVQKKLAG (not fully specified; also: 5-carboxyfluorescein label) [No. 19]", "values": [
      {"measurement": "Number of cleavage peaks, Test", "setting": "[1]", "result": 1},
      {"measurement": "Cleavage rate (%) of each candidate peptide by MMP12", "setting": "[1]", "result": 26.0, "unit": "%"}
    ]},
    {"compound": "SRNLQERLRRKE (not fully specified; also: 5-carboxyfluorescein label) [No. 05]", "values": [
      {"measurement": "Number of cleavage peaks, Test", "setting": "[1]", "result": 1},
      {"measurement": "Cleavage rate (%) of each candidate peptide by MMP12", "setting": "[1]", "result": 38.5, "unit": "%"},
      {"measurement": "cleavage rate by MMP12 (in words: low / medium / high)", "setting": "[1]", "result": "medium to high"}
    ]},
    {"compound": "STNLQESLRRKE (not fully specified; also: 5-carboxyfluorescein label) [No. 07]", "values": [
      {"measurement": "Number of cleavage peaks, Test", "setting": "[1]", "result": 2},
      {"measurement": "Cleavage rate (%) of each candidate peptide by MMP12", "setting": "[1]", "result": 70.4, "unit": "%"},
      {"measurement": "cleavage rate by MMP12 (in words: low / medium / high)", "setting": "[1]", "result": "medium to high"}
    ]},
    {"compound": "ASVVTELRSQSLQT (not fully specified; also: 5-carboxyfluorescein label) [No. 20]", "values": [
      {"measurement": "Number of cleavage peaks, Test", "setting": "[1]", "result": 2},
      {"measurement": "Cleavage rate (%) of each candidate peptide by MMP12", "setting": "[1]", "result": 100.0, "unit": "%"},
      {"measurement": "cleavage rate by MMP12 (in words: low / medium / high)", "setting": "[1]", "result": "high"},
      {"measurement": "cleavage site by MMP12", "setting": "[1]", "result": "E-L"}
    ]},
    {"compound": "LNVQRKAIHELIQV (not fully specified; also: 5-carboxyfluorescein label) [No. 11]", "values": [
      {"measurement": "Number of cleavage peaks, Test", "setting": "[1]", "result": 2},
      {"measurement": "Cleavage rate (%) of each candidate peptide by MMP12", "setting": "[1]", "result": 100.0, "unit": "%"},
      {"measurement": "cleavage rate by MMP12 (in words: low / medium / high)", "setting": "[1]", "result": "high"},
      {"measurement": "cleavage site by MMP12", "setting": "[1]", "result": "E-L"}
    ]},
    {"compound": "RQAFNEKIRVVHQL (not fully specified; also: 5-carboxyfluorescein label) [No. 15]", "values": [
      {"measurement": "Number of cleavage peaks, Test", "setting": "[1]", "result": 1},
      {"measurement": "Cleavage rate (%) of each candidate peptide by MMP12", "setting": "[1]", "result": 10.5, "unit": "%"},
      {"measurement": "cleavage rate by MMP12 (in words: low / medium / high)", "setting": "[1]", "result": "low"},
      {"measurement": "cleavage site by MMP12", "setting": "[1]", "result": "E-L"}
    ]},
    {"compound": "DKVWQDYIKDMKEN [No. 02]", "values": [
      {"measurement": "Number of cleavage peaks, Test", "setting": "[1]", "result": 1},
      {"measurement": "Cleavage rate (%) of each candidate peptide by MMP12", "setting": "[1]", "result": 56.0, "unit": "%"},
      {"measurement": "cleavage rate by MMP12 (in words: low / medium / high)", "setting": "[1]", "result": "medium"}
    ]}
  ]
}
